Publication PMC10303457 (Viruses, 2023)

Biological target: Mouse IMPα1 residues 70–529 (lacking the IMPβ binding domain) (mouse, UniProt P52293 70-529)
Experiment: crystal structure
Settings: both partners purified

Q: Does SGKRKKIRTIAAYPLGVGKS [HeV M NLS1 peptide (untagged)] bind?
A: Result: binds

Q: Does VRRAGKYYSVEYCKRKID [HeV M NLS2 peptide (untagged)] bind?
A: Result: binds
